Laboratory results as given in the RNAGym collection of RNA variant scans (doi:10.7554/elife.80360).

B1: CPEB3 Ribozyme (parent)
chain: GGGGGCCACAGCAGAAGCGUUCACGUCGCGGCCCCUGUCAGAUUCUGGUGAAUCUGCGAAUUCUGCUGU

Variants of: B1
Experiment: self-cleavage, relative activity (ratio to wild type); higher = more cleavage; co-transcriptional

Point of comparison: GGGGGCCACAGCAGAAGUGUUCACGUCGAGGCCCCUGUCAGAUUCUGGUGAAUCUGCGAAUUCUGCUGU [C18U C29A], self-cleavage 0.161. Against it:
- GGGGGCCACAGCAGAAGGGUUCACGUCGCGGCCCCUGUCAGAUUCUGGUGAAUCUGCGAAUUCUCCUGU [C18G G65C] — lower, 0.141
- GGGGGCCACAGCAGAAGGGUUCACGUCGCGGCCCCUGUCAGAUUCUGGUGAAUCUGCGAAUUCUACUGU [C18G G65A] — lower, 0.131
- GGGGGCCACAGCAGAAGGGUUCACGUCGCGGCCCCUGUCAGAUUCUGGUAAAUCUGCGAAUUCUGCUGU [C18G G50A] — higher, 0.266
- GGGGGCCACAGCAGAAGGGUUCACGUCGCGGCCCCUGUCAGAUUCUGGUUAAUCUGCGAAUUCUGCUGU [C18G G50U] — lower, 0.143
- GGGGGCCACAGCAGAAGUGUUCACGUCGCGGCCCCUGUCAGAUUCUGGUGAAUCUGCGAGUUCUGCUGU [C18U A60G] — higher, 0.809
- GGGGGCCACAGCAGAAGGGUUCACGUCGCGGCCCCUGUCAGAUUCUGGUGAAUCUUCGAAUUCUGCUGU [C18G G56U] — lower, 0.128
- GGGGGCCACAGCAGAAGGGUUCACGUCGCGGCCCCUGUCAGAUUCUGGUGAAUCUGCCAAUUCUGCUGU [C18G G58C] — lower, 0.154
- GGGGGCCACAGCAGAAGGGUUCACGUCGCGGCCCCUGUCAGAUUCUGGUGAAUCUGCUAAUUCUGCUGU [C18G G58U] — higher, 0.176
- GGGGGCCACAGCAGAAGGGUUCACGUCGCGGCCCCUGUCAGAUUCUGGCGAAUCUGCGAAUUCUGCUGU [C18G U49C] — lower, 0.147
- GGGGGCCACAGCAGAAGGGUUCACGUCGCGGCCCCUGUCAGAUUCUGGGGAAUCUGCGAAUUCUGCUGU [C18G U49G] — higher, 0.217
- GGGGGCCACAGCAGAAGGGUUCACGUCGCGGCCCCUGUCAGAUUCUGGUGAAUCUGCGAAUUCUGCUAU [C18G G68A] — higher, 0.403
- GGGGGCCACAGCAGAAGGGUUCACGUCGCGGCCCCUGUCAGAUUCUGGUGAAUCUGCGAAUUCUGCUCU [C18G G68C] — higher, 0.21
- GGGGGCCACAGCAGAAGUGUUCACGUCGCGGCUCCUGUCAGAUUCUGGUGAAUCUGCGAAUUCUGCUGU [C18U C33U] — higher, 0.821
- GGGGGCCACAGCAGAAGGGUUCACGUCGCGGCCCCUGUCAGAUUCUGGUGAAUCCGCGAAUUCUGCUGU [C18G U55C] — higher, 0.198
- GGGGGCCACAGCAGAAGGGUUCACGUCGCGGCCCCUGUCAGAUUCUGGUGAAUCAGCGAAUUCUGCUGU [C18G U55A] — lower, 0.126
- GGGGGCCACAGCAGAAGUGUUCACGUCGCGGCCCAUGUCAGAUUCUGGUGAAUCUGCGAAUUCUGCUGU [C18U C35A] — higher, 0.24
- GGGGGCCACAGCAGAAGUGUUCAAGUCGCGGCCCCUGUCAGAUUCUGGUGAAUCUGCGAAUUCUGCUGU [C18U C24A] — higher, 0.416
- GGGGGCCACAGCAGAAGUGUUCAGGUCGCGGCCCCUGUCAGAUUCUGGUGAAUCUGCGAAUUCUGCUGU [C18U C24G] — higher, 0.164
- GGGGGCCACAGCAGAAGUGUUCACGUCGUGGCCCCUGUCAGAUUCUGGUGAAUCUGCGAAUUCUGCUGU [C18U C29U] — lower, 0.0827
- GGGGGCCACAGCAGAAGGGUUCACGUCGCGGCCCCUGUCAGAUUCUGGUGAAUCUGCGAAUUCGGCUGU [C18G U64G] — lower, 0.159
- GGGGGCCACAGCAGAAGGGUUCACGUCGCGGCCCCUGUCAGAUUCUGGUGAAUCUGCGAAUUCCGCUGU [C18G U64C] — lower, 0.1
- GGGGGCCACAGCAGAAGGGUUCACGUCGCGGCCCCUGUCAGAUUCUGGUGAAUCUGCGAAUUCAGCUGU [C18G U64A] — higher, 0.228
- GGGGGCCACAGCAGAAGGGUUCACGUCGCGGCCCCUGUCAGAUUCUGGUGAAUCUGCGAAUUCUGCCGU [C18G U67C] — higher, 0.186
- GGGGGCCACAGCAGAAGGGUUCACGUCGCGGCCCCUGUCAGAUUCUGGUGAAUCUGCGAAUUCUGCAGU [C18G U67A] — higher, 0.205
- GGGGGCCACAGCAGAAGGGUUCACGUCGCGGCCCCUGUCAGAUUCUGUUGAAUCUGCGAAUUCUGCUGU [C18G G48U] — higher, 0.208
- GGGGGCCACAGCAGAAGGGUUCACGUCGCGGCCCCUGUCAGAUUCUGAUGAAUCUGCGAAUUCUGCUGU [C18G G48A] — lower, 0.145
- GGGGGCCACAGCAGAAGGGUUCACGUCGCGGCCCCUGUCAGAUUCUGCUGAAUCUGCGAAUUCUGCUGU [C18G G48C] — higher, 0.17
- GGGGGCCACAGCAGAAGGGUUCACGUCGCGGCCCCUGUCAGAUUCUGGUGAAUCUGCGAAUCCUGCUGU [C18G U62C] — lower, 0.122
- GGGGGCCACAGCAGAAGGGUUCACGUCGCGGCCCCUGUCAGAUUCUGGUGAAUCUGCGAAUACUGCUGU [C18G U62A] — lower, 0.142
- GGGGGCCACAGCAGAAGGGUUCACGUCGCGGCCCCUGUCAGAUUCUGGUGAAUCUGCGAAGUCUGCUGU [C18G U61G] — lower, 0.144
- GGGGGCCACAGCAGAAGGGUUCACGUCGCGGCCCCUGUCAGAUUCUGGUGAAUCUGCGAACUCUGCUGU [C18G U61C] — higher, 0.209
- GGGGGCCACAGCAGAAGGGUUCACGUCGCGGCCCCUGUCAGAUACUGGUGAAUCUGCGAAUUCUGCUGU [C18G U44A] — lower, 0.116
- GGGGGCCACAGCAGAAGUGUUCACGUCGCGGACCCUGUCAGAUUCUGGUGAAUCUGCGAAUUCUGCUGU [C18U C32A] — higher, 0.381
- GGGGGCCACAGCAGAAGUGUUCACGUCGCGGUCCCUGUCAGAUUCUGGUGAAUCUGCGAAUUCUGCUGU [C18U C32U] — higher, 0.87
- GGGGGCCACAGCAGAAGGGUGCACGUCGCGGCCCCUGUCAGAUUCUGGUGAAUCUGCGAAUUCUGCUGU [C18G U21G] — higher, 0.174
- GGGGGCCACAGCAGAAGGGUCCACGUCGCGGCCCCUGUCAGAUUCUGGUGAAUCUGCGAAUUCUGCUGU [C18G U21C] — higher, 0.219
- GGGGGCCACAGCAGAAGGGUUCACGUCGCGGCCCCUGUCAGAUUCAGGUGAAUCUGCGAAUUCUGCUGU [C18G U46A] — higher, 0.227
- GGGGGCCACAGCAGAAGGGUUCACGUCGCGGCCCCUGUCAGAUUCCGGUGAAUCUGCGAAUUCUGCUGU [C18G U46C] — lower, 0.15
